# Reference: paper PMC3609778, “Truncated and Helix-Constrained Peptides with High Affinity and Specificity for the cFos Coiled-Coil of AP-1” (PLoS ONE, 2013)
# Where a SMILES comes first, the peptide text is derived from it. Bridges are numbered along the chain shown (N, C = ends).
# Experiment: circular dichroism
# Settings: 10 mM K phosphate, 100 mM KF; pH 7; 20 °C; 150 uM
row,SMILES,helicity [frac]
1,"CC[C@H](C)[C@H](NC(C)=O)C(=O)N[C@H]1CCCCNC(=O)C[C@@H](C(=O)N[C@@H](CCCCN)C(=O)N[C@@H](C)C(=O)N[C@H]2CCCCNC(=O)C[C@@H](C(=O)N[C@@H](Cc3c[nH]cn3)C(=O)N[C@H](C(=O)N[C@@H](C)C(=O)N[C@@H](CCC(N)=O)C(=O)N[C@@H](CC(C)C)C(N)=O)[C@@H](C)CC)NC(=O)[C@H](CCCNC(=N)N)NC(=O)[C@H](CC(C)C)NC(=O)[C@H](CCSC)NC2=O)NC(=O)[C@H](CCCNC(=N)N)NC(=O)[C@H](CC(C)C)NC(=O)[C@H](CCC(=O)O)NC1=O (Ac-IKELRDKAKMLRDHIAQL-NH2; lactam 2-6, 9-13)",0.35
2,CC[C@H](C)[C@H](NC(C)=O)C(=O)N[C@H]1CCCCNC(=O)C[C@@H](C(=O)N[C@@H](CCCCN)C(=O)N[C@@H](C)C(=O)N[C@@H](CC(N)=O)C(=O)N[C@@H](CCSC)C(=O)N[C@@H](CC(C)C)C(=O)N[C@@H](CCCNC(=N)N)C(=O)N[C@@H](CCC(=O)O)C(=O)N[C@@H](Cc2c[nH]cn2)C(=O)N[C@H](C(=O)N[C@@H](C)C(=O)N[C@@H](CCC(N)=O)C(=O)N[C@@H](CC(C)C)C(N)=O)[C@@H](C)CC)NC(=O)[C@H](CCCNC(=N)N)NC(=O)[C@H](CC(C)C)NC(=O)[C@H](CCC(=O)O)NC1=O (Ac-IKELRDKANMLREHIAQL-NH2; lactam 2-6),0.3
3,CC[C@H](C)[C@H](NC(C)=O)C(=O)N[C@@H](Cc1ccc(O)cc1)C(=O)N[C@@H](CCC(=O)O)C(=O)N[C@@H](CC(C)C)C(=O)N[C@@H](CCCNC(=N)N)C(=O)N[C@@H](CO)C(=O)N[C@@H](CCCCN)C(=O)N[C@@H](C)C(=O)N[C@H]1CCCCNC(=O)C[C@@H](C(=O)N[C@@H](Cc2c[nH]cn2)C(=O)N[C@H](C(=O)N[C@@H](C)C(=O)N[C@@H](CCC(N)=O)C(=O)N[C@@H](CC(C)C)C(N)=O)[C@@H](C)CC)NC(=O)[C@H](CCCNC(=N)N)NC(=O)[C@H](CC(C)C)NC(=O)[C@H](CCSC)NC1=O (Ac-IYELRSKAKMLRDHIAQL-NH2; lactam 9-13),0.34
4,"CC[C@H](C)[C@@H]1NC(=O)[C@H](CCC(=O)O)NC(=O)[C@@H](NC(=O)[C@H](CCCCN)NC(=O)[C@H](CC(C)C)NC(C)=O)CCCCNC(=O)C[C@@H](C(=O)N[C@@H](CC(C)C)C(=O)N[C@@H](CCCNC(=N)N)C(=O)N[C@H]2CCCCNC(=O)C[C@@H](C(=O)N[C@@H](CC(C)C)C(=O)N[C@@H](CCCNC(=N)N)C(=O)N[C@@H](CCC(=O)O)C(=O)N[C@@H](Cc3c[nH]cn3)C(N)=O)NC(=O)[C@H](CCCCN)NC(=O)[C@H](C)NC(=O)[C@H](CCCCN)NC2=O)NC(=O)[C@H](Cc2ccc(O)cc2)NC1=O (Ac-LKKEIYDLRKKAKDLREH-NH2; lactam 3-7, 10-14)",0.39
5,"CC[C@H](C)[C@@H]1NC(=O)[C@H](CCC(=O)O)NC(=O)[C@@H](NC(=O)[C@H](CCCCN)NC(=O)[C@H](CC(C)C)NC(C)=O)CCCCNC(=O)C[C@@H](C(=O)N[C@@H](CC(C)C)C(=O)N[C@@H](CCCNC(=N)N)C(=O)N[C@@H](CCCCN)C(=O)N[C@@H](CCCCN)C(=O)N[C@@H](C)C(=O)N[C@H]2CCCCNC(=O)C[C@@H](C(=O)N[C@@H](Cc3c[nH]cn3)C(N)=O)NC(=O)[C@H](CCCNC(=N)N)NC(=O)[C@H](CC(C)C)NC(=O)[C@H](CCSC)NC2=O)NC(=O)[C@H](Cc2ccc(O)cc2)NC1=O (Ac-LKKEIYDLRKKAKMLRDH-NH2; lactam 3-7, 13-17)",0.49
6,"CC[C@H](C)[C@@H]1NC(=O)[C@H](Cc2c[nH]cn2)NC(=O)[C@@H](NC(=O)[C@H](CCCNC(=N)N)NC(=O)[C@H](CC(C)C)NC(=O)[C@@H]2CC(=O)NCCCC[C@H](NC(=O)[C@H](CCCNC(=N)N)NC(=O)[C@H](CC(C)C)NC(=O)[C@@H]3CC(=O)NCCCC[C@H](NC(=O)[C@H](CCCCN)NC(=O)[C@H](CC(C)C)NC(C)=O)C(=O)N[C@@H](CCC(=O)O)C(=O)N[C@@H]([C@@H](C)CC)C(=O)N[C@@H](Cc4ccc(O)cc4)C(=O)N3)C(=O)N[C@@H](CCCCN)C(=O)N[C@@H](C)C(=O)N[C@@H](CC(N)=O)C(=O)N2)CCCCNC(=O)C[C@@H](C(=O)N[C@@H](CC(C)C)C(N)=O)NC(=O)[C@H](C)NC1=O (Ac-LKKEIYDLRKKANDLRKHIADL-NH2; lactam 3-7, 10-14, 17-21)",0.43
7,"CC[C@H](C)[C@H](NC(=O)[C@H](Cc1c[nH]cn1)NC(=O)[C@@H]1CC(=O)NCCCC[C@H](NC(=O)[C@H](C)NC(=O)[C@H](CCCCN)NC(=O)[C@H](CO)NC(=O)[C@H](CCCNC(=N)N)NC(=O)[C@H](CC(C)C)NC(=O)[C@@H]2CC(=O)NCCCC[C@H](NC(=O)[C@H](CCCCN)NC(=O)[C@H](CC(C)C)NC(C)=O)C(=O)N[C@@H](CCC(=O)O)C(=O)N[C@@H]([C@@H](C)CC)C(=O)N[C@@H](Cc3ccc(O)cc3)C(=O)N2)C(=O)N[C@@H](CCSC)C(=O)N[C@@H](CC(C)C)C(=O)N[C@@H](CCCNC(=N)N)C(=O)N1)C(=O)N[C@@H](C)C(=O)N[C@@H](CCC(N)=O)C(=O)N[C@@H](CC(C)C)C(N)=O (Ac-LKKEIYDLRSKAKMLRDHIAQL-NH2; lactam 3-7, 13-17)",0.63
8,"CC[C@H](C)[C@@H]1NC(=O)[C@H](Cc2c[nH]cn2)NC(=O)[C@@H](NC(=O)[C@H](CCCNC(=N)N)NC(=O)[C@H](CC(C)C)NC(=O)[C@H](CCSC)NC(=O)[C@H](CC(N)=O)NC(=O)[C@H](C)NC(=O)[C@H](CCCCN)NC(=O)[C@H](CO)NC(=O)[C@H](CCCNC(=N)N)NC(=O)[C@H](CC(C)C)NC(=O)[C@@H]2CC(=O)NCCCC[C@H](NC(=O)[C@H](CCCCN)NC(=O)[C@H](CC(C)C)NC(C)=O)C(=O)N[C@@H](CCC(=O)O)C(=O)N[C@@H]([C@@H](C)CC)C(=O)N[C@@H](Cc3ccc(O)cc3)C(=O)N2)CCCCNC(=O)C[C@@H](C(=O)N[C@@H](CC(C)C)C(N)=O)NC(=O)[C@H](C)NC1=O (Ac-LKKEIYDLRSKANMLRKHIADL-NH2; lactam 3-7, 17-21)",0.57
9,"CC[C@H](C)[C@H](NC(=O)[C@H](Cc1c[nH]cn1)NC(=O)[C@@H]1CC(=O)NCCCC[C@H](NC(=O)[C@H](Cc2ccccc2)NC(=O)[C@H](CCCCN)NC(=O)[C@H](CO)NC(=O)[C@H](CCCNC(=N)N)NC(=O)[C@H](CC(C)C)NC(=O)[C@@H]2CC(=O)NCCCC[C@H](NC(=O)[C@H](CCCCN)NC(=O)[C@H](CC(C)C)NC(C)=O)C(=O)N[C@@H](CCC(=O)O)C(=O)N[C@@H]([C@@H](C)CC)C(=O)N[C@@H](Cc3ccc(O)cc3)C(=O)N2)C(=O)N[C@@H](CCSC)C(=O)N[C@@H](CC(C)C)C(=O)N[C@@H](CCCNC(=N)N)C(=O)N1)C(=O)N[C@@H](C)C(=O)N[C@@H](CCC(N)=O)C(=O)N[C@@H](CC(C)C)C(N)=O (Ac-LKKEIYDLRSKFKMLRDHIAQL-NH2; lactam 3-7, 13-17)",0.37
10,"CC[C@H](C)[C@H](NC(=O)[C@H](Cc1c[nH]cn1)NC(=O)[C@@H]1CC(=O)NCCCC[C@H](NC(=O)[C@H](C)NC(=O)[C@H](CC(C)C)NC(=O)[C@H](CO)NC(=O)[C@H](CCCNC(=N)N)NC(=O)[C@H](CC(C)C)NC(=O)[C@@H]2CC(=O)NCCCC[C@H](NC(=O)[C@H](CCCCN)NC(=O)[C@H](CC(C)C)NC(C)=O)C(=O)N[C@@H](CCC(=O)O)C(=O)N[C@@H]([C@@H](C)CC)C(=O)N[C@@H](Cc3ccc(O)cc3)C(=O)N2)C(=O)N[C@@H](CCSC)C(=O)N[C@@H](CC(C)C)C(=O)N[C@@H](CCCNC(=N)N)C(=O)N1)C(=O)N[C@@H](C)C(=O)N[C@@H](CCC(N)=O)C(=O)N[C@@H](CC(C)C)C(N)=O (Ac-LKKEIYDLRSLAKMLRDHIAQL-NH2; lactam 3-7, 13-17)",0.34
